The text below walks through data of article PMC11322666.

This experiment concerns the target UPF3B (UniProt Q9BZI7). Nature of the experiment: co-IP of IRE1α S724 mutants. The settings on record: reference: wild type; sites S724.

Take “IRE1α (inositol-requiring enzyme-1α) (from UniProt O75460) S724A”: the fold change result was “stronger”.
